Residue numbers refer to the chain shown, from its start. In names and notes the source's numbering stands. Read-outs that look alike come from different tables or passages of the source.
Key:
[1] = biological target: T1, human PD-1 extracellular domain protein expressed in Example 1 (tag not stated) (human, UniProt Q15116 25-170); assay: ELISA, PD-1 coated
T1 construct: extracellular domain; also called PD-1 protein; not shown: human IgG1 Fc or his tag
Experimental: (§1) PD-1 expressed in Example 1 was diluted to a concentration of 1 μg/ml with PBS buffer, pH 7.4, and added to a 96-well microplate (Corning, CLS3590-100EA) at 50 μl per well, thereby incubating in an incubator at 37° C. for 2 hours. After discarding the liquid, a blocking solution of 5% skimmed milk (Shanghai Shenggong Biological Engineering Co., Ltd., A600669-0250) diluted with PBS was added at 200 μl per well, followed by incubating at 37° C. for 3 hours or 4° C. overnight (16-18 hours)) for blocking. Subsequently, the blocking solution was discarded, and the microplate was washed 5 times with PBST buffer (pH 7.4 PBS containing 0.05% tween-20). […] Subsequently, the microplate was washed 5 times with PBST, then 50 μl/well of 1:2500 diluted HRP-labeled secondary antibody (Jackson Immuno Research, 115-035-003) was added, thereby incubating at 37° C. for 1 hour. After washing the microplate 5 times with PBST, 50 μl/well TMB chromogenic substrate (KPL, 52-00-03) was added, then incubated at room temperature for 5-10 min. Finally, 50 μl/well of 1M H₂SO₄ was added to stop the reaction. […] Go microplate reader (ThermoFisher, 51119200) was used to read the absorption value at 450 nm and the EC50 based on the OD value was calculated.

[2] = biological target: T2, human TIM-3 extracellular domain-human IgG1 Fc fusion protein (human, UniProt Q8TDQ0 22-199); assay: ELISA
T2 construct: Made in house or bought (ACROBiosystems TM3-H5258); also called TIM-3-hFc; not shown: human IgG1 Fc
Experimental: Goat-anti-hFc (Jackson, 109-005-008) was diluted to a concentration of 1 μg/ml with PBS buffer (pH 7.4) and added to a 96-well microplate (Corning, CLS3590-100EA) at a volume of 50 μl/well, then incubated in an incubator at 37° C. for 2 hours (Or the antigen TIM-3 was directly used to coat the microplate with a concentration of 0.5 μg/ml, and then the antibody to be tested was directly added). After discarding the liquid, a blocking solution of 5% skimmed milk (skimmed milk powder purchased from Bright) diluted with PBS was added at 200 μl per well, and the microplate was incubated for 2.5 hours at 37° C. or overnight (16-18 hours) at 4° C. for blocking. The blocking solution was discarded, and the microplate was washed 5 times with PBST buffer (PBS with pH 7.4 containing 0.05% tween-20), then 50 μl/well of 0.5 μg/ml TIM-3-hFc (Example 1) was added and incubated for 2 hours in a 37° C. incubator. After incubation, the microplate was washed 6 times with PB ST. 50 μl/well of supernatant (containing testing antibody) or different concentrations of the antibody to be tested was added, and the microplate was incubated at 37° C. for 2 hours and washed 5 times with PBST. 50 μl/well of 1:2500 diluted HRP-labeled secondary antibody (Jackson Immuno Research, 115-035-003) was added to the microplate, incubating at 37° C. for 1 hour. After washing the microplate 5 times with PBST, 50 μl/well TMB chromogenic substrate (KPL, 52-00-03) was added to the microplate, followed by incubating at room temperature for 10-15 min.

[3] = biological target: T1, human PD-1 extracellular domain protein …; assay: ELISA, EC50 of bispecific over EC50 of the monoclonal control
Experimental: After washing the microplate 5 times with PBST, 50 μl/well TMB chromogenic substrate (KPL, 52-00-03) was added to the microplate, followed by incubating at room temperature for 10-15 min.
as §1

[4] = biological target: T2, human TIM-3 extracellular domain-human …; assay: as above
[5] = biological target: T1, human PD-1 extracellular domain protein …; assay: ELISA, PD-1 coated; remark: listed apart in the source
Experimental: as §1
The TIM-3 and PD-1 bispecific antibodies of the present invention were tested for their affinity for TIM-3 and PD-1 using the methods in Example 3 and Example 5, respectively.

[6] = biological target: T2, human TIM-3 extracellular domain-human …; assay: ELISA; remark: listed apart in the source
[7] = biological target: T3, human TIM-3 extracellular domain-his tag protein (human, UniProt Q8TDQ0 22-199); assay: SPR Biacore, antibody captured on Protein A, antigen in flow
T3 construct: Made in house or bought (ACROBiosystems TM3-H5229); also called TIM-3-his; Human Tim3-his; not shown: his tag
Experimental: (§2) First, Protein A (Thermo Pierce, Cat #21181) was conjugated to the biosensing chip CMS (Cat. #BR-1005-30, GE), and the chip was activated with the newly prepared 50 mM NHS (N-hydroxysuccinimide) and 200 mM EDC [1-ethyl-3-(3-dimethylaminopropyl) carbodiimide hydrochloride], then 10 μg/ml Protein A prepared with 10 mM NaAC (pH 4.0) was injected. […] The flow rate was 30 μl/min, the binding time was 180 seconds and the dissociation time is 300 seconds. Subsequently, the chip was washed for 30s with 10 mM Glycine-HCl (pH 1.5) at 30 μl/min. The data were fitted with a 1:1 Langmuir model using the software of Biacore T200 evaluation version 3.0 (GE), and the affinity value KD was obtained.

Human PD-1-his = biological target: T4, Human PD-1-his (human, UniProt Q15116 25-170); assay: as above
T4 construct: extracellular domain; not shown: his tag
Experimental: as §2

B1: bispecific antibody LB246 (bispecific antibody, human IgG4 S228P, kappa)
light: DIQMTQSPSSLSASVGDRVTITCHASQGISSNIGWLQQKPGKAFKGLIYQGSNLEDGVPSRFSGSGSGADYTLTISSLQPEDFATYYCVQFAQFPPTFGQGTKLEIKGGGGSGGGGSGGGGSEVQLVESGGGLVKPGGSLRLSCAASGFTFSDYYMAWVRQAPGKGLEWVANINYDGSNTYYLDSLKSRFTISRDNAKNSLYLQMNSLRAEDTAVYYCARGLYYYGGNYFAYWGQGTLVTVSSGGGGSGGGGSGGGGSEIVLTQSPATLSLSPGERATLSCRASKGVSTSGYSYLHWYQQKPGQAPRLLIYLASYLESGVPARFSGSGSGTDFTLTISSLEPEDFAVYYCQHSRDLPLTFGGGTKVEIKRTVAAPSVFIFPPSDEQLKSGTASVVCLLNNFYPREAKVQWKVDNALQSGNSQESVTEQDSKDSTYSLSSTLTLSKADYEKHKVYACEVTHQGLSSPVTKSFNRGECGGGGSGGGGSGGGGSEVQLVESGGGLVKPGGSLRLSCAASGFTFSDYYMAWVRQAPGKGLEWVANINYDGSNTYYLDSLKSRFTISRDNAKNSLYLQMNSLRAEDTAVYYCARGLYYYGGNYFAYWGQGTLVTVSSGGGGSGGGGSGGGGSDIQMTQSPSSLSASVGDRVTITCHASQGISSNIGWLQQKPGKAFKGLIYQGSNLEDGVPSRFSGSGSGADYTLTISSLQPEDFATYYCVQFAQFPPTFGQGTKLEIK
heavy: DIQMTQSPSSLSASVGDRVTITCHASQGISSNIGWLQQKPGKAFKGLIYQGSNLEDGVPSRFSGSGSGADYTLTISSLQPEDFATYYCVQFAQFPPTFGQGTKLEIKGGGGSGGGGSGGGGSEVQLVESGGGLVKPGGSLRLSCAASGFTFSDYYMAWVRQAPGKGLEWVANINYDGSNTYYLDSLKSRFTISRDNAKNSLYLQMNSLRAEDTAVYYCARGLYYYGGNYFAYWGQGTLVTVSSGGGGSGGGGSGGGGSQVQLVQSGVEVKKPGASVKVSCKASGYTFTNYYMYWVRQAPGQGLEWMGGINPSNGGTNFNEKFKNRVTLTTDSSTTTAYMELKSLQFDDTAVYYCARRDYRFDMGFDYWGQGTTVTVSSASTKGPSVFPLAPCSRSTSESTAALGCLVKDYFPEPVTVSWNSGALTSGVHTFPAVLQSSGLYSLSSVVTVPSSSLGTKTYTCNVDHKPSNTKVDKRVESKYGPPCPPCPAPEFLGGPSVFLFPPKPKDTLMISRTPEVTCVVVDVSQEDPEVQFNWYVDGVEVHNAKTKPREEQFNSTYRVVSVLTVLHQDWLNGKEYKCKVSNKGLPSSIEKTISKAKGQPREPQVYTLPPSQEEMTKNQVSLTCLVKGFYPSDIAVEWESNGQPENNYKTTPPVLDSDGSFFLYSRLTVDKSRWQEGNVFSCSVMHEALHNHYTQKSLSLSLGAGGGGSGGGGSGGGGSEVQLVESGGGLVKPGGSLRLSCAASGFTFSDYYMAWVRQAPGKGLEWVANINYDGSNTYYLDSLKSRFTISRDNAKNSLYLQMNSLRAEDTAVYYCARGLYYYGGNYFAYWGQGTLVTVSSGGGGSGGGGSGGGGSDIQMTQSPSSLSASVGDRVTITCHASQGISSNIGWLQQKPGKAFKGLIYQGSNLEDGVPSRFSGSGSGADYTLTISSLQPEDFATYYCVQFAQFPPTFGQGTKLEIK
EC50 [1]: 5.51 nM
EC50 [2]: 2.05 nM
Multiple of EC50 variation [3]: 21 ratio
Multiple of EC50 variation [4]: 12.9 ratio

B2: bispecific antibody LB127 (bispecific antibody, human IgG4 S228P, kappa)
light: DIQMTQSPSSLSASVGDRVTITCHASQGISSNIGWLQQKPGKAFKGLIYQGSNLEDGVPSRFSGSGSGADYTLTISSLQPEDFATYYCVQFAQFPPTFGQGTKLEIKRTVAAPSVFIFPPEIVLTQSPATLSLSPGERATISCRASKGVSTSGYSYLHWYQQKPGQAPRLLIYLASYLESGVPARFSGSGSGTDFTLTISSLEPEDFATYYCQHSRELPLTFGTGTKVEIKRTVAAPSVFIFPPSDEQLKSGTASVVCLLNNFYPREAKVQWKVDNALQSGNSQESVTEQDSKDSTYSLSSTLTLSKADYEKHKVYACEVTHQGLSSPVTKSFNRGEC
heavy: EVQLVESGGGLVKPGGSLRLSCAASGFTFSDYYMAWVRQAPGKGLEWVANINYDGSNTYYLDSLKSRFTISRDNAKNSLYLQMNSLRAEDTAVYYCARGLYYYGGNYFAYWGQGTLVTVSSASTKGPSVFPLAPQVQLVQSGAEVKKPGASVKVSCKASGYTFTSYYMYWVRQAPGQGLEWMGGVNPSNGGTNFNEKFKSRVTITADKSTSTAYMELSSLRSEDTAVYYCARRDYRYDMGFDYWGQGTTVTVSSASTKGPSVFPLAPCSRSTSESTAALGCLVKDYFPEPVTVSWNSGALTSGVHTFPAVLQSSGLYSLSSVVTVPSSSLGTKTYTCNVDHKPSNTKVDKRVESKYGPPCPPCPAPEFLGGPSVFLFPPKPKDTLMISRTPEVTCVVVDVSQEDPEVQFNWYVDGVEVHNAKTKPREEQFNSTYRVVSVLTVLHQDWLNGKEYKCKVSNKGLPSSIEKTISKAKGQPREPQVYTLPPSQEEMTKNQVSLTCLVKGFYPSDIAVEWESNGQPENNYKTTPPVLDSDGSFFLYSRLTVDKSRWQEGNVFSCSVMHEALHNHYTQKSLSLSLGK
EC50 [5]: 0.423 nM
EC50 [6]: 0.325 nM

B3: bispecific antibody LB147 (bispecific antibody, human IgG4 S228P, kappa)
light: DIQMTQSPSSLSASVGDRVTITCRASENIYSYLTWYQQKPGKAPKLLIYNAKTLAEGVPSRFSGSGSGTDFTLTISSLQPEDFATYYCQQHYGTPLTFGQGTKLEIKGGGGSGGGGSGGGGSEVQLVESGGGLVKPGGSLRLSCAASGFTFSDYYMTWVRQAPGKGLEWVSSINYDGRNTYYLDSLKSRFTISRDNAKNSLYLQMNSLRAEDTAVYYCARGYYYYGSSPNYFDYWGQGTLVTVSSGGGGSGGGGSGGGGSEIVLTQSPATLSLSPGERATLSCRASKGVSTSGYSYLHWYQQKPGQAPRLLIYLASYLESGVPARFSGSGSGTDFTLTISSLEPEDFAVYYCQHSRDLPLTFGGGTKVEIKRTVAAPSVFIFPPSDEQLKSGTASVVCLLNNFYPREAKVQWKVDNALQSGNSQESVTEQDSKDSTYSLSSTLTLSKADYEKHKVYACEVTHQGLSSPVTKSFNRGEC
heavy: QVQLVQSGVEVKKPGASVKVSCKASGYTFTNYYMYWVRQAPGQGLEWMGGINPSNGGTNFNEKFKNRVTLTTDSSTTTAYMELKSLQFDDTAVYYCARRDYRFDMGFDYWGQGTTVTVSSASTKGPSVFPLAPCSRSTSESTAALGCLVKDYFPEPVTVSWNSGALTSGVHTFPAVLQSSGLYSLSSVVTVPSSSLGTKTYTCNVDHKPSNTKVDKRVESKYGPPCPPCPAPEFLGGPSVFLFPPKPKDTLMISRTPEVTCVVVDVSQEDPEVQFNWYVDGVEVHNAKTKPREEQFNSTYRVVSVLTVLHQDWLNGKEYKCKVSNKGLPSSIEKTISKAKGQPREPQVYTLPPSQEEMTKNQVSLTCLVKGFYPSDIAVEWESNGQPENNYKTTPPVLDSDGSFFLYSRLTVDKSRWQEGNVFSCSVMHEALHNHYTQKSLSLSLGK
notes: Ab32VL-(G4S)3-ab32VH-(G4S)3-PemVL-κ with PemVH-hIgG4
EC50 [1]: 0.056 nM
EC50 [2]: 0.62 nM
Multiple of EC50 variation [3]: 0.81 ratio
Multiple of EC50 variation [4]: 0.79 ratio

B4: bispecific antibody LB247 (bispecific antibody, human IgG4 S228P, kappa)
light: EIVLTQSPATLSLSPGERATLSCRASKGVSTSGYSYLHWYQQKPGQAPRLLIYLASYLESGVPARFSGSGSGTDFTLTISSLEPEDFAVYYCQHSRDLPLTFGGGTKVEIKRTVAAPSVFIFPPSDEQLKSGTASVVCLLNNFYPREAKVQWKVDNALQSGNSQESVTEQDSKDSTYSLSSTLTLSKADYEKHKVYACEVTHQGLSSPVTKSFNRGEC
heavy: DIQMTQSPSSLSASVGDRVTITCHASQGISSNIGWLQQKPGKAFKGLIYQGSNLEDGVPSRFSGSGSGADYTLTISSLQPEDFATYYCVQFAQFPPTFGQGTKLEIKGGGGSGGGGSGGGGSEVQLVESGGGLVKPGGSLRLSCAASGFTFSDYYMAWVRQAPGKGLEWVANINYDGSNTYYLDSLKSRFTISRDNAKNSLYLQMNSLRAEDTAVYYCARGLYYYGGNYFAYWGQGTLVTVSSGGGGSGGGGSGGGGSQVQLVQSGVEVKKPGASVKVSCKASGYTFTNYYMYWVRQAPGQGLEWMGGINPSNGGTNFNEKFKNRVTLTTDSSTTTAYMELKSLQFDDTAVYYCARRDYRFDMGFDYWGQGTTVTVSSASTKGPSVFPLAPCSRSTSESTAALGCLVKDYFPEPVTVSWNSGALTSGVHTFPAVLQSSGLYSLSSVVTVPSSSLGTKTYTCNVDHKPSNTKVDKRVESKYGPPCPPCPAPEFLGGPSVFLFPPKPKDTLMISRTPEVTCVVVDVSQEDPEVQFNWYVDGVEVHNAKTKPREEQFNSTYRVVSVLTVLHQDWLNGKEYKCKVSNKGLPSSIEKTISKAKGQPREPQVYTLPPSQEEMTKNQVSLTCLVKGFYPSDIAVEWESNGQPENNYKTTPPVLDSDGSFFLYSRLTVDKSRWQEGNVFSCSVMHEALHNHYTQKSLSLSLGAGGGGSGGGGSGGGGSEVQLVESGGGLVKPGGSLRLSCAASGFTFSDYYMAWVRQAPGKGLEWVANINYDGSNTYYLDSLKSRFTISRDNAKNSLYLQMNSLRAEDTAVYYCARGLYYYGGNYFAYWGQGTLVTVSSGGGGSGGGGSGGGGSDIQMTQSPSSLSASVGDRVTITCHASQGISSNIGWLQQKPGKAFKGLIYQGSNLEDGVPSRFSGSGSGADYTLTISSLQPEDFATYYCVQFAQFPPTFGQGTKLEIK
EC50 [1]: 0.19 nM
EC50 [2]: 1.86 nM
Multiple of EC50 variation [3]: 1.98 ratio
Kd [7]: 8.29 nM
koff [7]: 0.00332 s⁻¹
kon [7]: 401000 M⁻¹ s⁻¹
Kd (Human PD-1-his): 7.34 nM
koff (Human PD-1-his): 0.00259 s⁻¹
kon (Human PD-1-his): 353000 M⁻¹ s⁻¹
Multiple of EC50 variation [4]: 2.38 ratio

B5: bispecific antibody LB123 (bispecific antibody, human IgG4 S228P, kappa)
light: B4 light with L21I, V89T, D97E, G104T
heavy: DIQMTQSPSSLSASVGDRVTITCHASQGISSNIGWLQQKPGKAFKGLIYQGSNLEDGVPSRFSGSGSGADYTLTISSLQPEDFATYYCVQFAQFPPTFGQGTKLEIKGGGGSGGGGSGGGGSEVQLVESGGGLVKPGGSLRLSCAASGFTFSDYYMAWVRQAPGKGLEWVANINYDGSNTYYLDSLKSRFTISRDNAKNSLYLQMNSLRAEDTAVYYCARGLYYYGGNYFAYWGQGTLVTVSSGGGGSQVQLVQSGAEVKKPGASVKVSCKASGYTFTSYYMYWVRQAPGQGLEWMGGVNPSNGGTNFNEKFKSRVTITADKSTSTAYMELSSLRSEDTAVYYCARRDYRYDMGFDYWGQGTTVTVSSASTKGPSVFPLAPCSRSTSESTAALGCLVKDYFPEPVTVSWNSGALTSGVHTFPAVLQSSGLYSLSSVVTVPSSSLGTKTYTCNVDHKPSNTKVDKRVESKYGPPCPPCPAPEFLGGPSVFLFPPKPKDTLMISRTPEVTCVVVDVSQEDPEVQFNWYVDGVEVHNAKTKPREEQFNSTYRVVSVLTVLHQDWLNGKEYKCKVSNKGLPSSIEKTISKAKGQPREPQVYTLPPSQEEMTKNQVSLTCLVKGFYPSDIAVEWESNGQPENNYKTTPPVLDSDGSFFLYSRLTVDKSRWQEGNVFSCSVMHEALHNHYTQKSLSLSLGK
EC50 [5]: 0.216 nM
EC50 [6]: 0.181 nM

B6: bispecific antibody LB124 (bispecific antibody, human IgG4 S228P, kappa)
light: B4 light with L21I, V89T, D97E, G104T
heavy: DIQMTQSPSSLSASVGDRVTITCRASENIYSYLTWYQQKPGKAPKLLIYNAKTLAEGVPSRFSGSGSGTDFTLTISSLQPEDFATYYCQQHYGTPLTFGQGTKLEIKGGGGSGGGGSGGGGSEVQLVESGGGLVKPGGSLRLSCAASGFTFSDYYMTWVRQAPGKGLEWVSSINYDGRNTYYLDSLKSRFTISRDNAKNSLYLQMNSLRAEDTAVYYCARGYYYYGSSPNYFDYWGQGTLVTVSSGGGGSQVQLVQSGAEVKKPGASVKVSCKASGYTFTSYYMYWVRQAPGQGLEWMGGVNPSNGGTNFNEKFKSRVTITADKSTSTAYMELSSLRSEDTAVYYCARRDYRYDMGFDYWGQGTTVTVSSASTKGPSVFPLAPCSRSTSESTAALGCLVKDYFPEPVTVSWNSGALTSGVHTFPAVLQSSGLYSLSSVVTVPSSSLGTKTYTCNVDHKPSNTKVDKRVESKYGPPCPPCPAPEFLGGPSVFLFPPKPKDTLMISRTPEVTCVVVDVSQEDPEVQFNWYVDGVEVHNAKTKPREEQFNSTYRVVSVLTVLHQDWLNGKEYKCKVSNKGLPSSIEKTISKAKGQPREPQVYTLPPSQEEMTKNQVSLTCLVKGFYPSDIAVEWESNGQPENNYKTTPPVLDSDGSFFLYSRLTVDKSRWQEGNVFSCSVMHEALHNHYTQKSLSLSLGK
EC50 [5]: 0.383 nM
EC50 [6]: 0.438 nM

— US20210269521A1 (L AND L BIOPHARMA, published 2021)
